Laboratory results from patent US20180066015A1, “INHIBITORS OF GROWTH FACTOR ACTIVATION ENZYMES” (Washington University, published 2018).
Starred links: 1 amine or outer side, 2 acyl side, 3 side chain; linkers in the order of their positions; H or OH if unused. Non-standard residues stand in square brackets, D forms with d. No end group written: not given here. *: point of attachment. Kbt‑6‑CONH = ketobenzothiazole-6-CONH (amide link to Val), O=C(c1ccc2nc([*:1])sc2c1)[*:2]; kbt = C-terminal ketobenzothiazole, c1ccc2sc(*)nc2c1; His(π-Bom) = N[C@@H](Cc1cncn1COCc1ccccc1)C(=O)O; Fmoc = O=C(OCC1c2ccccc2-c2ccccc21)*; cmk = not defined here

T1: matriptase (Charles Craik, UCSF), recombinant (Homo sapiens (Human), UniProt Q9Y5Y6)
T1 sequence: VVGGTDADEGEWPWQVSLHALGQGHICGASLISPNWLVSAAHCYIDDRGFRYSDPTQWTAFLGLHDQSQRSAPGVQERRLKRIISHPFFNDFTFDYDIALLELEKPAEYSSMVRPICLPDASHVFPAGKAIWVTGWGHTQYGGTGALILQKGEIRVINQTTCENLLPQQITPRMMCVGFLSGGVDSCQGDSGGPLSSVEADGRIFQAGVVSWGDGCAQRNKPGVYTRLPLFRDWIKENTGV


Assays:
[1] = target: Hepatocyte Growth Factor Activator (HGFA) serine protease domain, N-terminal His-tag, recombinant (Homo sapiens (Human)) (UniProt Q04756)
[2] = target: Hepatocyte Growth Factor Activator (HGFA) serine protease domain, N-terminal His-tag, recombinant (Homo sapiens (Human)) (UniProt Q04756); test: fluorogenic inhibition assay
[3] = target: T1, matriptase (Charles Craik, UCSF), …; test: fluorogenic inhibition assay
Experimental: (§1) Inhibitors (11-pt serial dilutions, 0-20 μM final concentration in reaction) were serially diluted in DMSO (2% DMSO final concentration) and then mixed with either recombinant serine protease domain of HGFA [Z. Han, P. K. Harris, D. E. Jones, R. Chugani, T. Kim, M. Agarwal, W. Shen, S. A. Wildman, J. W. Janetka, Acs Med Chem Lett 2014, 5, 1219-1224], matriptase (Charles Craik, UCSF) or hepsin* (#4776-SE-010, R&D Systems, Minneapolis, Minn.) in black 384 well plates (Corning #3575. Corning, N.Y.). […] The final substrate concentrations for all assays were at the Kₘ for the respective enzymes. Changes in fluorescence (excitation at 380 nm and emission at 460 nm) were measured at room temperature over time in a Biotek Synergy 2 plate reader (Winnoski, Vt.). Using GraphPad Prism version 6.04 software program, (GraphPad Software, San Diego, Calif., www.graphpad.com), a four parameter curve fit was used to determine the inhibitor IC₅₀s from a plot of the mean reaction velocity versus the inhibitor concentration. The IC₅₀ values represent the average of three separate experimental determinations.
(§2) Fluorescent inhibitor and chromogenic proteolytic assays were performed in general accordance with the procedures described in Example 4 for compounds prepared in Examples 5 and 6.

[4] = target: Recombinant human hepsin (4776-SE-010, R&D Systems), activated (human, UniProt P05981); test: fluorogenic inhibition assay
Experimental: as §1, §2

Factor Xa = test: selectivity inhibition assay
Trypsin = test: selectivity inhibition assay
recombinant thrombin = test: selectivity inhibition assay

Row | Molecule | IC50 of enzyme inhibition [1] [nM] | Ki [2] [nM] | Ki [3] [nM] | Ki [4] [nM] | Ki (Factor Xa) [nM] | Ki (Trypsin) [nM] | Ki (recombinant thrombin) [nM]
1 | Ac-SRLdR-kt (peptide) | 2240 |  |  |  |  |  | 
2 | Ac-WQLdR-kt (peptide) | 7120 |  |  |  |  |  | 
3 | Ac-RQLdR-kt (peptide) | 3120 |  |  |  |  |  | 
4 | Ac-KQLdR-kt (peptide) | 5530 |  |  |  |  |  | 
5 | Ac-WKLdR-kt (peptide) | 6500 |  |  |  |  |  | 
6 | Ac-SdRLR-kt (peptide) | 1420 |  |  |  |  |  | 
7 | H-KQLdR-kt (peptide) | 11300 |  |  |  |  |  | 
8 | Ac-SdRLdR-kt (peptide) | 11900 |  |  |  |  |  | 
9 | Ac-KHLdR-kt (peptide) | 10900 |  |  |  |  |  | 
10 | Ac-SHLdR-kt (peptide) | 21200 |  |  |  |  |  | 
11 | Ac-SKLdR-kt (peptide) | 6310 |  |  |  |  |  | 
12 | Ac-SKFdR-kt (peptide) | 10800 |  |  |  |  |  | 
13 | H-KQLR(SEQ ID NO: 1)-Kt (peptide) | 440 |  |  |  |  |  | 
14 | Ac-KQFdR-kt (peptide) | 7820 |  |  |  |  |  | 
15 | Fmoc-Thr-Arg-kbt [Fmoc-TR-kbt] |  | > 20000 | 1220 | 437 |  |  | 
16 | Fmoc-Pro-Arg-kbt [Fmoc-PR-kbt] |  | > 20000 | 40.4 | 776 |  |  | 
17 | Fmoc-Arg-Arg-kbt [Fmoc-RR-kbt] |  | 8630 | 2 | 99.9 |  |  | 
18 | Fmoc-Gln-Arg-kbt [Fmoc-QR-kbt] |  | 6830 | 1.6 | 170 |  |  | 
19 | H-Trp-Leu-Arg-{kbt-OH} [H-WLR-kbt-COOH] |  | 1380 |  | 446 |  |  | 
20 | Fmoc-Glu-Arg-kbt [Fmoc-ER-kbt] |  | > 20000 | 8.4 | 338 |  |  | 
21 | Fmoc-Ser-Arg-kbt [Fmoc-SR-kbt] |  | > 20000 | 90 | 886 |  |  | 
22 | Fmoc-Tyr-Arg-kbt [Fmoc-YR-kbt] |  | 2960 | 332 | 217 |  |  | 
23 | Fmoc-Val-Arg-kbt [Fmoc-VR-kbt] |  | 4630 | 1490 | 314 |  |  | 
24 | Fmoc-Gly-Arg-kbt [Fmoc-GR-kbt] |  | 9380 | 0.1 | 831 |  |  | 
25 | Fmoc-Leu-Arg-kbt [Fmoc-LR-kbt] |  | 450 | 425 | 115 | 410 | 19.8 | 995

Row | Molecule | IC50 of enzyme inhibition [1] [nM] | Ki [2] [nM] | Ki [3] [nM] | Ki [4] [nM] | Ki (Factor Xa) [nM] | Ki (Trypsin) [nM] | Ki (recombinant thrombin) [nM]
26 | Fmoc-Ala-Arg-kbt [Fmoc-AR-kbt] |  | 7980 | 0.5 | 272 |  |  | 
27 | H-Trp-Phe-Arg-kbt [H-WFR-kbt] |  | 5680 |  | 240 |  |  | 
28 | H-[dW]-Phe-Arg-kbt [H-dWFR-kbt] |  | 2250 |  | 370 |  |  | 
29 | H-[dW]-Leu-Arg-kbt [H-dWLR-kbt] |  | 128 |  | 3.58 |  |  | 
30 | Ac-KRLR (not fully specified (C-terminus); also: benzyl COOH at 3 or 4 (tables differ)) [Ac-KRLR(SEQ ID NO: 8)-kbt-Benzyl-3-COOH] |  | 3.33 | 3.6 | 0.3 |  |  | 1620
31 | H-Leu-Leu-Arg-{kbt-Val-NH2} [H-LLR-kbt-Val-NH2] |  | 82.1 |  | 0.88 | 159 | 0.61 | 101
32 | H-Trp-Leu-Arg-kbt [H-WLR-kbt] |  | 104 |  | 1.52 | 532 | 0.05 | 457
33 | H-[His(π-Bom)][dW]LR-kbt (SMILES CC(C)C[C@H](NC(=O)[C@@H](Cc1c[nH]c2ccccc12)NC(=O)[C@@H](N)Cc1cncn1COCc1ccccc1)C(=O)N[C@@H](CCCNC(=N)N)C(=O)c1nc2ccccc2s1) [H-His(Bom)-dWLR-kbt] |  | 2280 | 1500 | 1.13 |  |  | 
34 | H-[His(π-Bom)]WLR-kbt (SMILES CC(C)C[C@H](NC(=O)[C@H](Cc1c[nH]c2ccccc12)NC(=O)[C@@H](N)Cc1cncn1COCc1ccccc1)C(=O)N[C@@H](CCCNC(=N)N)C(=O)c1nc2ccccc2s1) [H-His(Bom)-WLR-kbt] |  | 3710 | 1550 | 2.08 |  |  | 
35 | {Cy5.5}-KRLR-kbt [Cy5.5-KRLR(SEQ ID NO: 8)-kbt] |  | 608 | 87.5 | 3.89 |  |  | 
36 | Fmoc-Lys-Arg-kbt [Fmoc-KR-kbt] |  | > 20000 | 0.2 | 159 |  |  | 
37 | Fmoc-Met-Arg-kbt [Fmoc-MR-kbt] |  |  | 62.1 | 490 |  |  | 
38 | Ac-KRLR-{Kbt‑6‑CONH-Val-NH2} [Ac-KRLR(SEQ ID NO: 8)-Kbt-Val-NH2] |  | 5.83 | 7.42 | 0.227 | 17 |  | 1560
39 | Fmoc-Phe-Arg-kbt [Fmoc-FR-kbt] |  | 964 | 1280 | 778 | 28.4 | 14.3 | > 2000
40 | H-[dW]-Leu-Arg-{kbt-OH} [H-dWLR-kbt-COOH] |  | 346 |  | 136 |  |  | 
41 | H-Arg-Leu-Arg-kbt [H-RLR-kbt] |  | 83.1 |  | 0.5 | 56 | 0.13 | 8200
42 | Fmoc-His-Arg-kbt [Fmoc-HR-kbt] |  | 6360 | 66.7 | 268 |  |  | 
43 | Ac-WLFR-kbt (SMILES CC(=O)N[C@@H](Cc1c[nH]c2ccccc12)C(=O)N[C@@H](CC(C)C)C(=O)N[C@@H](Cc1ccccc1)C(=O)N[C@@H](CCCNC(=N)N)C(=O)c1nc2ccccc2s1) [Ac-WLFR(SEQ ID NO: 20)-Kbt] |  | 133 | 5.96 | 0.347 | 1 |  | > 20000
44 | Fmoc-Asn-Arg-kbt [Fmoc-NR-kbt] |  | > 20000 | 84.1 | 1.92 |  |  | 
45 | {Cy5.5}-KRLR-cmk (reading uncertain) [Cy5.5-KRLR(SEQ ID NO: 8)-cmk] |  | 34.1 | 172 | 324 |  |  | 
46 | Fmoc-Asp-Arg-kbt [Fmoc-DR-kbt] |  | > 20000 | 398 | 233 |  |  | 
47 | Fmoc-Trp-Arg-kbt [Fmoc-WR-kbt] |  | 3200 | 824 | 411 |  |  | 
48 | Fmoc-Ile-Arg-kbt [Fmoc-IR-kbt] |  | 6470 | 657 | 297 |  |  | 
49 | H-[dW]-Phe-Arg-{kbt-OH} [H-dWFR-kbt-COOH] |  | 981 | 232 | 1.41 |  |  | 
